Tests used:
[1] = target: T1, recombinant biotinylated human CD71 extracellular domain (human, UniProt P02786 89-760, biotinylated); experiment: solution ELISA
T1 construct: extracellular domain; also called hCD71; huCD71 ECD

CD71 apical domain [2] = target: T2, CD71 apical domain (UniProt P02786 189-383, limits assumed); experiment: solution ELISA
T2 construct: domain: Apical domain

[3] = target: T1, recombinant biotinylated human CD71 …; experiment: solution ELISA, signal ratio to HSA
CD71 apical domain [4] = target: T2, CD71 apical domain; experiment: solution ELISA, signal ratio to HSA
[5] = target: T3, recombinant biotinylated CD71 extracellular domain (Sino Biologics) with an N-terminal 6His tag (human, UniProt P02786 89-760, biotinylated (site not stated)); experiment: primary solution ELISA screen, signal on hCD71 over HSA
T3 construct: extracellular domain; also called hCD71; huCD71 ECD

[6] = target: T3, recombinant biotinylated CD71 …; experiment: primary solution ELISA screen

T1 sequence (P02786 other isoform, or with tags, fused parts or gaps): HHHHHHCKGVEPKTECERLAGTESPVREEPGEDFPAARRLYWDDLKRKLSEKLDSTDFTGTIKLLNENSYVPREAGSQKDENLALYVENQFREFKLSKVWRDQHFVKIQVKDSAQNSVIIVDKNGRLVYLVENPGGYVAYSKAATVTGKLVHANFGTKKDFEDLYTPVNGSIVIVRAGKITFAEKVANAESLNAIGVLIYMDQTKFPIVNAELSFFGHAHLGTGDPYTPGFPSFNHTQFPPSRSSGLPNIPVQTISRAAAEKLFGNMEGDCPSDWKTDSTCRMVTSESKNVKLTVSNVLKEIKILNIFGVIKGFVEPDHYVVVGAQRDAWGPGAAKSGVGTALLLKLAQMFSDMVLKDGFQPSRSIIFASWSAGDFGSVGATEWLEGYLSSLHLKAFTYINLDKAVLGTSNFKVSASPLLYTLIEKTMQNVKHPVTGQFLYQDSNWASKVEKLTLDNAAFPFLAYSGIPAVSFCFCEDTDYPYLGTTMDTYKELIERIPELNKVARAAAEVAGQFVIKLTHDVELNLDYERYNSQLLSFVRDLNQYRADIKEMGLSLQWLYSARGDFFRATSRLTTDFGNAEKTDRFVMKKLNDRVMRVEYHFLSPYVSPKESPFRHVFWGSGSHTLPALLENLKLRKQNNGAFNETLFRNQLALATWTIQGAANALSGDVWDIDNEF
T2 sequence (P02786 189-383 limits assumed): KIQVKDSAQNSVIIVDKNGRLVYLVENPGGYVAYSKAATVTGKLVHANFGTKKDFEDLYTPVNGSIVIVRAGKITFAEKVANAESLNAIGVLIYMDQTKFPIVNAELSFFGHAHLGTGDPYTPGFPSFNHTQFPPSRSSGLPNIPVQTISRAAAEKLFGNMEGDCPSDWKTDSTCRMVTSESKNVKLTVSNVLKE
T3 sequence (P02786 other isoform, or with tags, fused parts or gaps): as the sequence (P02786 other isoform, or with tags, fused parts or gaps) above

B1: SEQ ID NO 115 (designed binder)
chain: MLPAPKNLVVSRVTEDSARLSWTAPDAAFDSFYIAYAEPRPDGEAIELHVPGSERSYDLTGLKPGTEYSVLIHGVKGGLLSSPLFTT
notes: FN3 domain
- hCD71, RLU [1]: 3.47e+06 RLU
- Apical domain, RLU (CD71 apical domain [2]): 150000 RLU
- hCD71:HSA [3]: 20.1
- apical domain:HSA (CD71 apical domain [4]): 0.9

B2: SEQ ID NO 1 (designed binder, not shown: small tags and cut ends)
chain: MLPAPKNLVVSRVTEDSARLSWTAPDAAFDSFPITYIEAVVLGEAIVLTVPGSERSYDLTGLKPGTEYPVGISGVKGGHNSMPLSAIFTT
notes: FN3 domain, hit of the apical domain panning
- hCD71:HSA [5]: 96
- RLU [6]: 1.51e+06 RLU

B3: SEQ ID NO 110 (designed binder)
chain: MLPAPKNLVVSRVTEDSARLSWTAPDAAFDSFFIGYLEPQPPGEAIYLTVPGSERSYDLTGLKPGTEYNVTIQGVKGGFPSYPLDASFTT
notes: FN3 domain
- hCD71, RLU [1]: 636000 RLU
- Apical domain, RLU (CD71 apical domain [2]): 803000 RLU
- hCD71:HSA [3]: 60
- apical domain:HSA (CD71 apical domain [4]): 75.8

B4: SEQ ID NO 114 (designed binder)
chain: MLPAPKNLVVSRVTEDSARLSWTTPDAAFDSFFIGYLEPQPPGEAISLQVPGSERSYDLTGLKPGTEYNVTIQGVKGGFPSSPLFAVFTT
notes: FN3 domain
- hCD71, RLU [1]: 2.6e+06 RLU
- Apical domain, RLU (CD71 apical domain [2]): 6.22e+06 RLU
- hCD71:HSA [3]: 121
- apical domain:HSA (CD71 apical domain [4]): 289

B5: SEQ ID NO 173 (designed binder)
chain: MLPAPKNLVVSRVTEDSARLSWTAPDAAFDSFHIVYHEPRPSGEAIHLQVPGSERSYDLTGLKPGTEYNVTIQGVKGGFPSYPLSAFFTT
notes: FN3 domain
- hCD71, RLU [1]: 1.49e+06 RLU
- Apical domain, RLU (CD71 apical domain [2]): 1.8e+06 RLU
- hCD71:HSA [3]: 66.5
- apical domain:HSA (CD71 apical domain [4]): 80.4

B6: SEQ ID NO 121 (designed binder)
chain: MLPAPKNLVVSRVTEDSARLSWTAPDAAFDSFFIGYLEPQPPGEAIALWVPGSERSYDLTGLKPGTEYNVTIQGVKGGFPSMPLSAIFTT
notes: FN3 domain
- hCD71, RLU [1]: 4.77e+06 RLU
- Apical domain, RLU (CD71 apical domain [2]): 6.18e+06 RLU
- hCD71:HSA [3]: 269
- apical domain:HSA (CD71 apical domain [4]): 348

B7: SEQ ID NO 126 (designed binder)
chain: MLPAPKNLVVSRVTEDSARLSWTAPDAAFDSFFIGYLEPQPPGEAIHLHVPGSERSYDLTGLKPGTEYNVTIQGVKGGFPSIPLHANFTT
notes: FN3 domain
- hCD71, RLU [1]: 2.74e+06 RLU
- Apical domain, RLU (CD71 apical domain [2]): 4.42e+06 RLU
- hCD71:HSA [3]: 85
- apical domain:HSA (CD71 apical domain [4]): 137

B8: SEQ ID NO 163 (designed binder)
chain: MLPAPKNLVVSRVTEDSARLSWTAPDAAFDSFFIGYLEPQPPGEAIYLEVPGSERSYDLTGLKPGTEYNVTIQGVKGGFPSFPLKAAFTT
notes: FN3 domain
- hCD71, RLU [1]: 313000 RLU
- Apical domain, RLU (CD71 apical domain [2]): 74500 RLU
- hCD71:HSA [3]: 11.5
- apical domain:HSA (CD71 apical domain [4]): 2.7

B9: SEQ ID NO 140 (designed binder)
chain: MLPAPKNLVVSRVTEDSARLSWTAPDAAFDSFFIGYLEPQPPGEAIQLEVPGSERSYDLTGLKPGTEYNVTIQGVKGGFPSMPLSAIFTT
notes: FN3 domain
- hCD71, RLU [1]: 603000 RLU
- Apical domain, RLU (CD71 apical domain [2]): 317000 RLU
- hCD71:HSA [3]: 27.9
- apical domain:HSA (CD71 apical domain [4]): 14.6

B10: SEQ ID NO 191 (designed binder)
chain: MLPAPKNLVVSRVTEDSARLSWTAPDAAFDSFFIGYLEPQPPGEAIILAVPGSERSYDLTGLKPGTEYNVTIQGVKGGFPSLPLVASFTT
notes: FN3 domain
- hCD71, RLU [1]: 3.86e+06 RLU
- Apical domain, RLU (CD71 apical domain [2]): 4.66e+06 RLU
- hCD71:HSA [3]: 119
- apical domain:HSA (CD71 apical domain [4]): 143

B11: SEQ ID NO 123 (designed binder)
chain: MLPAPKNLVVSRVTEDSARLSWTAPDAAFDSFFIGYLEPQPPGEAIQLWVPGSERSYDLTGLKPGTEYNVTIQGVKGGFPSHPLGAVFTT
notes: FN3 domain
- hCD71, RLU [1]: 1.25e+06 RLU
- Apical domain, RLU (CD71 apical domain [2]): 4.78e+06 RLU
- hCD71:HSA [3]: 42.7
- apical domain:HSA (CD71 apical domain [4]): 163

B12: SEQ ID NO 136 (designed binder)
chain: MLPAPKNLVVSRVTEDSARLSWTAPDAAFDSFFIGYLEPQPPGEAIWLHVPGSERSYDLTGLKPGTEYNVTIQGVKGGFPSIPLIAIFTT
notes: FN3 domain
- hCD71, RLU [1]: 3.69e+06 RLU
- Apical domain, RLU (CD71 apical domain [2]): 4.77e+06 RLU
- hCD71:HSA [3]: 155
- apical domain:HSA (CD71 apical domain [4]): 201

B13: SEQ ID NO 139 (designed binder)
chain: MLPAPKNLVVSRVTEDSARLSWTAPDAAFDSFFIGYLEPQPPGEAIQLGVPGSERSYDLTGLKPGTEYNVTIQGVKGGFPSHPLNANFTT
notes: FN3 domain
- hCD71, RLU [1]: 1.13e+06 RLU
- Apical domain, RLU (CD71 apical domain [2]): 1.86e+06 RLU
- hCD71:HSA [3]: 73.8
- apical domain:HSA (CD71 apical domain [4]): 121

B14: SEQ ID NO 142 (designed binder)
chain: MLPAPKNLVVSRVTEDSARLSWTAPDAAFDSFFIGYLEPQPPGEAIGLQVPGSERSYDLTGLKPGTEYNVTIQGVKGGFPSHPLKAQFTT
notes: FN3 domain
- hCD71, RLU [1]: 2.97e+06 RLU
- Apical domain, RLU (CD71 apical domain [2]): 4.36e+06 RLU
- hCD71:HSA [3]: 123
- apical domain:HSA (CD71 apical domain [4]): 181

B15: SEQ ID NO 151 (designed binder)
chain: MLPAPKNLVVSRVTEDSARLSWTAPDAAFDSFFIGYLEPQPPGEAIQLWVPGSERSYDLTGLKPGTEYNVTIQGVKGGFPSRPLQAHFTT
notes: FN3 domain
- hCD71, RLU [1]: 1.23e+06 RLU
- Apical domain, RLU (CD71 apical domain [2]): 4.04e+06 RLU
- hCD71:HSA [3]: 45.2
- apical domain:HSA (CD71 apical domain [4]): 149

B16: SEQ ID NO 184 (designed binder)
chain: MLPAPKNLVVSRVTEDSARLSWTAPDAAFDSFFIGYLEPQPPGEAIDLAVPGSERSYDLTGLKPGTEYSVLIHGVKGGLLSSPLSFTT
notes: FN3 domain
- hCD71, RLU [1]: 4.04e+06 RLU
- Apical domain, RLU (CD71 apical domain [2]): 120000 RLU
- hCD71:HSA [3]: 27.9
- apical domain:HSA (CD71 apical domain [4]): 0.8

B17: SEQ ID NO 187 (designed binder)
chain: MLPAPKNLVVSRVTEDSARLSWTAPDAAFDSFFIGYLEPQPPGEAISLLVPDSERSYDLTGLKPGTEYNVTIQGVKGGFPSMPLKFTT
notes: FN3 domain
- hCD71, RLU [1]: 796000 RLU
- Apical domain, RLU (CD71 apical domain [2]): 77900 RLU
- hCD71:HSA [3]: 10.9
- apical domain:HSA (CD71 apical domain [4]): 1.1

B18: SEQ ID NO 162 (designed binder)
chain: MLPAPKNLVVSRVTEDSARLSWTAPDAAFDSFYIAYAEPRPDGEAIKLEVPGSERSYDLTGLKPGTEYSVLIHGVKGGLLSSPLAIFTT
notes: FN3 domain
- hCD71, RLU [1]: 638000 RLU
- Apical domain, RLU (CD71 apical domain [2]): 93100 RLU
- hCD71:HSA [3]: 17
- apical domain:HSA (CD71 apical domain [4]): 2.5

B19: SEQ ID NO 202 (designed binder)
chain: MLPAPKNLVVSRVTEDSARLSWTAPDAAFDSFDIGYTEYGGYGEAILHVPGSERSYDLTGLKPGTEYWVLIQGVKGGGSSVPLSAIFTT
notes: FN3 domain
- hCD71, RLU [1]: 1.51e+06 RLU
- Apical domain, RLU (CD71 apical domain [2]): 5.47e+06 RLU
- hCD71:HSA [3]: 58.6
- apical domain:HSA (CD71 apical domain [4]): 212

B20: SEQ ID NO 130 (designed binder)
chain: MLPAPKNLVVSRVTEDSARLSWTAPDAAFDSFVIEYFEWTLNGEAIVLTVPGSERSYDLTGLKPGTEYSVQIYGVKGGCLSRPLSAIFTT
notes: FN3 domain
- hCD71, RLU [1]: 1.61e+06 RLU
- Apical domain, RLU (CD71 apical domain [2]): 106000 RLU
- hCD71:HSA [3]: 13.2
- apical domain:HSA (CD71 apical domain [4]): 0.9

B21: SEQ ID NO 111 (designed binder)
chain: MLPAPKNLVVSRVTEDSARLSWTAPDAAFDSFFIGYLEPQPPGEAIDLGVPGSERSYDLTGLKPGTEYNVTIQGVKGGFPSMPLDPLEAYFTT
notes: FN3 domain
- hCD71, RLU [1]: 2.41e+06 RLU
- Apical domain, RLU (CD71 apical domain [2]): 113000 RLU
- hCD71:HSA [3]: 17.9
- apical domain:HSA (CD71 apical domain [4]): 0.8

B22: SEQ ID NO 172 (designed binder)
chain: MLPAPKNLVVSRVTEDSARLSWTAPDAAFDSFFIGYLEPQPPGEAIVLTVPGSERSYDLTGLKPGTEYNVTIQGVKGGFPSMPLASFTT
notes: FN3 domain
- hCD71, RLU [1]: 377000 RLU
- Apical domain, RLU (CD71 apical domain [2]): 353000 RLU
- hCD71:HSA [3]: 13.4
- apical domain:HSA (CD71 apical domain [4]): 12.5

B23: SEQ ID NO 192 (designed binder)
chain: MLPAPKNLVVSRVTEDSARLSWTAPDAAFDSFDIGYTEYGGYGEAIYLSVPGSERSYDLTGLKPGTEYWVLIQGVKGGGSSVPLSAIFTT
notes: FN3 domain
- hCD71, RLU [1]: 1.77e+06 RLU
- Apical domain, RLU (CD71 apical domain [2]): 7.58e+06 RLU
- hCD71:HSA [3]: 79.9
- apical domain:HSA (CD71 apical domain [4]): 342

B24: SEQ ID NO 109 (designed binder)
chain: MLPAPKNLVVSRVTEDSARLSWTAPDAAFDSFHISYEEDYTFGEAIYLRVPGSERSYDLTGLKPGTEYRVVIGGVKGGWFSEPLLAAFTT
notes: FN3 domain
- hCD71, RLU [1]: 5.33e+06 RLU
- Apical domain, RLU (CD71 apical domain [2]): 28300 RLU
- hCD71:HSA [3]: 138
- apical domain:HSA (CD71 apical domain [4]): 0.7
